Source: the supplement of paper PMC9233669
Fewer inactive variants are shown than the library holds.

What was measured:
[1] = test system: biotinyl-Ile-oxazolone; assay: self-aminoacylation, catalytic enhancement (BIO) (fold over background); higher = more active; k-Seq, kA / k0A0; sequences stand for … in GGGAAUGGAUCCACAUCUACGAAUUC…UUCACUGCAGACUUGACGAAGCUG
Outline: (§1)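 Each biotinyl-aminoacyl-oxazolone, at 2–1250 μM, was incubated with mutagenized RNA pools (0.43 μM) carrying a 21-nt variable region. The 50 μL reactions contained HEPES/NaCl/KCl/MgCl2/CaCl2 buffer with 5% acetonitrile at pH 6.9–7.0 and ran for 90 minutes at room temperature. After streptavidin capture, RNA was measured by qPCR in triplicate and by Illumina sequencing, and catalytic enhancement was calculated as median kA over the uncatalyzed rate from a pseudo-first-order fit of per-sequence fraction reacted.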

[2] = test system: biotinyl-Phe-oxazolone; assay: self-aminoacylation, catalytic enhancement (BFO) (fold over background); higher = more active; k-Seq, kA / k0A0; sequences stand for … in GGGAAUGGAUCCACAUCUACGAAUUC…UUCACUGCAGACUUGACGAAGCUG
Outline: as §1

[3] = test system: biotinyl-Met-oxazolone; assay: self-aminoacylation, catalytic enhancement (BMO) (fold over background); higher = more active; k-Seq, kA / k0A0; sequences stand for … in GGGAAUGGAUCCACAUCUACGAAUUC…UUCACUGCAGACUUGACGAAGCUG
Outline: as §1

[4] = test system: biotinyl-Val-oxazolone; assay: self-aminoacylation, catalytic enhancement (BVO) (fold over background); higher = more active; k-Seq, kA / k0A0; sequences stand for … in GGGAAUGGAUCCACAUCUACGAAUUC…UUCACUGCAGACUUGACGAAGCUG
Outline: as §1

[5] = test system: biotinyl-Trp-oxazolone; assay: self-aminoacylation, catalytic enhancement (BWO) (fold over background); higher = more active; k-Seq, kA / k0A0; sequences stand for … in GGGAAUGGAUCCACAUCUACGAAUUC…UUCACUGCAGACUUGACGAAGCUG
Outline: as §1

[6] = test system: biotinyl-Leu-oxazolone; assay: self-aminoacylation, catalytic enhancement (BLO) (fold over background); higher = more active; k-Seq, kA / k0A0; sequences stand for … in GGGAAUGGAUCCACAUCUACGAAUUC…UUCACUGCAGACUUGACGAAGCUG
Outline: as §1

| Sequence | self-aminoacylation [1] | self-aminoacylation [2] | self-aminoacylation [3] | self-aminoacylation [4] | self-aminoacylation [5] | self-aminoacylation [6] |
| --- | --- | --- | --- | --- | --- | --- |
| CAACUUCAAACAAUCGGACUG [Fam1A.1 aminoacylation ribozyme variant] | 1.26 | 19.2 | 0.952 | 0.945 | 10.6 | 1.41 |
| CAACUUCAGACAAUCGGUCUG [Fam1A.1 aminoacylation ribozyme variant] | 1.09 | 2.46 | 0.989 | 1.09 | 1.43 | 1.08 |
| CAACUUCGAACAAUCGGUCUG [Fam1A.1 aminoacylation ribozyme variant] | 1.21 | 2.22 | 1.1 | 1.15 | 2.15 | 0.999 |
| CAACUUCUAACAAUCGGUCUG [Fam1A.1 aminoacylation ribozyme variant] | 0.904 | 1.44 | 0.722 | 0.917 | 1.05 | 0.743 |
| CAAGUUCAAACAAUCGGUCUG [Fam1A.1 aminoacylation ribozyme variant] | 0.983 | 6.99 | 0.954 | 0.969 | 4.9 | 1.02 |
| CACUUUGCUAAUAGUCGCAAG [Fam3.1 aminoacylation ribozyme variant] | 1.41 | 0.947 | 1.32 | 1.01 | 2.22 | 1.38 |
| CAGUUAGCUAAUAGUCGCAAG [Fam3.1 aminoacylation ribozyme variant] | 1.21 | 1.67 | 1.17 | 1.32 | 0.96 | 1.04 |
| CAGUUUGCUAAUAGGCGCAAG [Fam3.1 aminoacylation ribozyme variant] | 1.21 | 0.95 | 1.14 | 1.27 | 0.744 | 1.35 |
| CAGUUUGCUAAUAGUCACAAG [Fam3.1 aminoacylation ribozyme variant] | 1.04 | 2.59 | 1.04 | 0.952 | 1.3 | 1.11 |
| CAUCUUCAAACAAUCGGUCUG [Fam1A.1 aminoacylation ribozyme variant] | 1.14 | 47 | 1.48 | 1.23 | 24.5 | 1.96 |
| CCAAACUUCAAGCAAUCGGCC [Fam1B.1 aminoacylation ribozyme variant] | 2.38 | 4.84 | 2.21 | 3.04 | 5.38 | 3.45 |
| CCAAACUUCUAGCAAUCGGUC [Fam1B.1 aminoacylation ribozyme variant] | 0.961 | 1.01 | 0.839 | 0.952 | 0.667 | 0.733 |
| CCAAGCUUCAAGCAAUCGGUC [Fam1B.1 aminoacylation ribozyme variant] | 1.35 | 86.5 | 1.51 | 1.3 | 44.9 | 2.5 |
| CCACAAUUCAAACAAUCGGUC [Fam1B.1 aminoacylation ribozyme variant] | 1.26 | 18.1 | 1.08 | 1.04 | 8.88 | 1.19 |
| CCACAAUUCAAGCAAUCGAUC [Fam1B.1 aminoacylation ribozyme variant] | 0.742 | 0.898 | 0.699 | 0.888 | 0.675 | 0.685 |
| CCACAAUUCAAGCACUCGGUC [Fam1B.1 aminoacylation ribozyme variant] | 1.4 | 0.706 | 1.17 | 1.18 | 0.787 | 1.24 |
| CCACAAUUCAAGCCAUCGGUC [Fam1B.1 aminoacylation ribozyme variant] | 1.46 | 1.19 | 1.47 | 1.7 | 1.3 | 1.59 |
| CCACAAUUCAGGCAAUCGGUC [Fam1B.1 aminoacylation ribozyme variant] | 1.47 | 1.29 | 1.37 | 1.42 | 0.94 | 1.46 |
| CCACACAUCAAGCAAUCGAUC [Fam1B.1 aminoacylation ribozyme variant] | 0.575 | 0.914 | 0.439 | 0.748 | 0.513 | 0.581 |
| CCACACAUCAAGCAAUCGGCC [Fam1B.1 aminoacylation ribozyme variant] | 2.66 | 4.94 | 1.65 | 2.9 | 2.88 | 2.25 |
| CCACACAUCAAGCAGUCGGUC [Fam1B.1 aminoacylation ribozyme variant] | 0.93 | 0.847 | 0.686 | 1.05 | 0.457 | 0.799 |
| CCACACAUCAAGCCAUCGGUC [Fam1B.1 aminoacylation ribozyme variant] | 1.19 | 1.07 | 1.04 | 1.27 | 0.895 | 1.01 |
| CCACACAUCAAGCUAUCGGUC [Fam1B.1 aminoacylation ribozyme variant] | 0.954 | 0.819 | 0.888 | 1.15 | 0.735 | 0.914 |
| CCACACAUCAGGCAAUCGGUC [Fam1B.1 aminoacylation ribozyme variant] | 1.25 | 1.15 | 1.03 | 1.3 | 0.806 | 1.12 |
| CCACACAUCCAGCAAUCGGUC [Fam1B.1 aminoacylation ribozyme variant] | 1.2 | 0.873 | 1.05 | 1.08 | 0.847 | 0.983 |
| CCACACCACAAGCAAUCGGUC [Fam1B.1 aminoacylation ribozyme variant] | 1.13 | 0.854 | 0.999 | 1.1 | 0.871 | 0.949 |

| Sequence | self-aminoacylation [1] | self-aminoacylation [2] | self-aminoacylation [3] | self-aminoacylation [4] | self-aminoacylation [5] | self-aminoacylation [6] |
| --- | --- | --- | --- | --- | --- | --- |
| CCACACCGCAAGCAAUCGGUC [Fam1B.1 aminoacylation ribozyme variant] | 1.12 | 0.867 | 1.13 | 1.13 | 1.02 | 0.882 |
| CCACACCUCAAGCAAUCGGUU [Fam1B.1 aminoacylation ribozyme variant] | 1.43 | 0.882 | 1.14 | 2.1 | 1.57 | 1.98 |
| CCACACCUCAAGCUAUCGGUC [Fam1B.1 aminoacylation ribozyme variant] | 1.37 | 1.1 | 1.21 | 1.27 | 0.809 | 1.18 |
| CCACACCUCAAGGAAUCGGUC [Fam1B.1 aminoacylation ribozyme variant] | 1.34 | 0.875 | 1.02 | 1.26 | 1.32 | 1.34 |
| CCACACCUCAUGCAAUCGGUC [Fam1B.1 aminoacylation ribozyme variant] | 0.959 | 1.19 | 0.839 | 1.05 | 0.975 | 0.685 |
| CCACACGUCAAGCAAACGGUC [Fam1B.1 aminoacylation ribozyme variant] | 0.784 | 0.465 | 0.86 | 1.37 | 0.619 | 0.809 |
| CCACACGUCAAGCAAUAGGUC [Fam1B.1 aminoacylation ribozyme variant] | 0.655 | 1.1 | 0.765 | 0.831 | 0.587 | 0.652 |
| CCACACGUCAAGCCAUCGGUC [Fam1B.1 aminoacylation ribozyme variant] | 1.34 | 1.11 | 1.58 | 2.45 | 1.21 | 1.48 |
| CCACACGUCAUGCAAUCGGUC [Fam1B.1 aminoacylation ribozyme variant] | 1.18 | 0.974 | 1.26 | 1.34 | 1.61 | 0.972 |
| CCACACGUCGAGCAAUCGGUC [Fam1B.1 aminoacylation ribozyme variant] | 1.17 | 0.83 | 0.959 | 2.02 | 1.22 | 1.41 |
| CCACACGUGAAGCAAUCGGUC [Fam1B.1 aminoacylation ribozyme variant] | 0.9 | 0.826 | 1.32 | 1.2 | 1.39 | 0.721 |
| CCACACUACAAACAAUCGGUC [Fam1B.1 aminoacylation ribozyme variant] | 0.904 | 1.41 | 0.642 | 0.883 | 0.993 | 0.652 |
| CCACACUACAAGCAAUCGUUC [Fam1B.1 aminoacylation ribozyme variant] | 0.643 | 0.644 | 0.548 | 0.679 | 0.468 | 0.54 |
| CCACACUAUAAGCAAUCGGUC [Fam1B.1 aminoacylation ribozyme variant] | 0.789 | 0.92 | 0.567 | 0.793 | 0.386 | 0.59 |
| CCACACUCCAAACAAUCGGUC [Fam1B.1 aminoacylation ribozyme variant] | 0.982 | 10.9 | 0.917 | 1.31 | 6.11 | 1.09 |
| CCACACUCCAAGAAAUCGGUC [Fam1B.1 aminoacylation ribozyme variant] | 1.31 | 0.991 | 0.768 | 0.973 | 1 | 0.848 |
| CCACACUCCAAGCAAACGGUC [Fam1B.1 aminoacylation ribozyme variant] | 0.95 | 1.06 | 0.934 | 0.773 | 1.21 | 0.861 |
| CCACACUCCAAGCAAUAGGUC [Fam1B.1 aminoacylation ribozyme variant] | 0.741 | 1.06 | 0.686 | 0.845 | 0.637 | 0.569 |
| CCACACUCCAAGCAAUCGGCC [Fam1B.1 aminoacylation ribozyme variant] | 1.63 | 2.68 | 1.36 | 2.36 | 2.59 | 1.28 |
| CCACACUCCAAGCAGUCGGUC [Fam1B.1 aminoacylation ribozyme variant] | 1.32 | 0.733 | 1.04 | 1.49 | 1.04 | 1.11 |
| CCACACUCCAAGUAAUCGGUC [Fam1B.1 aminoacylation ribozyme variant] | 1.01 | 1.97 | 0.951 | 0.95 | 1.29 | 0.919 |
| CCACACUCCUAGCAAUCGGUC [Fam1B.1 aminoacylation ribozyme variant] | 0.943 | 0.91 | 0.631 | 1.04 | 0.519 | 0.746 |
| CCACACUGCAAGCAAUCGAUC [Fam1B.1 aminoacylation ribozyme variant] | 0.9 | 1.39 | 0.56 | 1.07 | 0.727 | 0.739 |
| CCACACUGCAAGCAAUCGGUU [Fam1B.1 aminoacylation ribozyme variant] | 1.77 | 5.76 | 2.17 | 1.73 | 1.76 | 1.63 |
| CCACACUGCAAGCACUCGGUC [Fam1B.1 aminoacylation ribozyme variant] | 1.63 | 2.57 | 1.54 | 1.66 | 1.47 | 1.39 |
